We go through eleven substances from patent publication US20240132578A1.

Common to all, as to test: cell-based or functional assay
The target of assay [1] is HIV-1 Env of pseudovirus DU156 (HIV-1).
Assay [2] concerns the target HIV-1 Env of pseudovirus ZM249 (HIV-1).
In assay [3] the target is HIV-1 Env of isolate MG RM-D-001 (subtype D) (HIV-1).
Assay [4] addresses HIV-1 Env of isolate APV_13 (subtype B), on pseudovirus (HIV-1).
Assay [5] has as its target HIV-1 Env of isolate MGRM-Chronic-B-003 (subtype B), on pseudovirus (HIV-1).
Assay [6] has as its target HIV-1 Env of isolate MG RM-D-022 (subtype D) (HIV-1).
Assay [7] addresses HIV-1 envelope glycoprotein (Env) of isolate MG RM-A-001 (HIV-1).
Assay [8] deals with HIV-1 93IN905 envelope glycoprotein (Env), clade C pseudovirus (HIV-1).
For assay [9], the target named is HIV-1 APV17 envelope glycoprotein (Env), clade B pseudovirus (HIV-1).
Assay [10] concerns the target HIV-1 JR-CSF Env K343A (HIV-1 isolate JR-CSF) (UniProt P20871).
Assay [11] deals with HIV-1 94UG103 envelope glycoprotein (Env), clade A pseudovirus (HIV-1).
Assay [12] deals with HIV-1 MGRM-D-018 envelope glycoprotein (Env), clade D pseudovirus (HIV-1).
In assay [13] the target is HIV-1 envelope glycoprotein (Env) of isolate JRCSF (HIV-1) (UniProt P20871).
The target in assay [14] is HIV-1 envelope glycoprotein (Env) of isolate CMU02 (HIV-1).
For assay [15], the target named is HIV-1 envelope glycoprotein (Env) of isolate MGRM-A-010 (HIV-1).
Assay [16] deals with HIV-1 JRCSF Env (HIV-1 isolate JRCSF (clade B)) (UniProt P20871).
Assay [17] deals with HIV-1 93IN905 envelope glycoprotein (Env) (HIV-1).
Assay [18] concerns the target HIV-1 92UG005 envelope glycoprotein (Env) (HIV-1).
Assay [19] deals with HIV-1 MGRM-D-018 envelope glycoprotein (Env) (HIV-1).
For assay [20], the target named is HIV-1 MGRM-A-010 envelope glycoprotein (Env) (HIV-1).
The target of assay [21] is HIV-1 JR-CSF Env T319A (HIV-1 (isolate JR-CSF, clade B)) (UniProt P20871).
In assay [22] the target is HIV-1 92RW020 envelope glycoprotein (Env) on pseudovirus (HIV-1).
For assay [23], the target named is HIV-1 JRFL Env (pseudovirus) (HIV-1).
The target of assay [24] is HIV-1 93UG077 Env (pseudovirus) (HIV-1).
For assay [25], the target named is HIV-1 92RW020 Env (pseudovirus) (HIV-1).
The target in assay [26] is HIV-1 CMU02 envelope glycoprotein (Env) on virus (HIV-1, clade AE, isolate CMU02).
The target in assay [27] is HIV-1 JRFL envelope glycoprotein (Env) on virus (HIV-1, clade B, isolate JRFL).
Assay [28] concerns the target HIV-1 92RW020 envelope glycoprotein (Env) on virus (HIV-1, clade A, isolate 92RW020).
Assay [29] has as its target HIV-1 MGRM-C-028 envelope glycoprotein (Env) on virus (HIV-1, clade C, isolate MGRM-C-028).
The target in assay [30] is HIV-1 Env of isolate MGRM-C-028 (clade C) (HIV-1).

Chain of 5329_C19 (PGT-136) (antibody) (VH): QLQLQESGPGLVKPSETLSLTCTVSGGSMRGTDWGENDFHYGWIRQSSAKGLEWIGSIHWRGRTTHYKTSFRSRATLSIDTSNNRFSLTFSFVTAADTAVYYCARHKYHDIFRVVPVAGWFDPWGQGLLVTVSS
Chain of 5329_C19 (PGT-136) (antibody) (VL): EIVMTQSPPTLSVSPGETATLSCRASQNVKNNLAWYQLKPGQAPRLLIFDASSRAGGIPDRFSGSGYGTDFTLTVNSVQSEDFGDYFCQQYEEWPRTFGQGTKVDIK
Chain of 1443_C16 (PG16) (TCN-116) (antibody) (VH): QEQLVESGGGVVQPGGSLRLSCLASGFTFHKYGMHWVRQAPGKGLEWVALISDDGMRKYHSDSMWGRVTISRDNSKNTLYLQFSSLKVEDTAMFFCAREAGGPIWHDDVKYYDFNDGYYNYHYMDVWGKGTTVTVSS
Chain of 1443_C16 (PG16) (TCN-116) (antibody) (VL): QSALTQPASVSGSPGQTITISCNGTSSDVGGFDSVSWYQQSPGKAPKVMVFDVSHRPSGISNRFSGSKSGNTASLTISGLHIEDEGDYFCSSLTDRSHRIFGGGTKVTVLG

Take 1443_C16 (PG16) (TCN-116) (antibody): the IC50, pseudovirus neutralization (TZM-bl assay) in assay [1] and in assay [2] was under 0.01 µg/mL throughout.

As to PGV04 (antibody), the IC50 (µg/mL), pseudovirus neutralization in assay [3] and in assay [6] was over 50 µg/mL in each case. Moreover, the results for the IC50, single-round pseudovirus neutralization in assay [4] and in [5] were 1.23 µg/mL and 0.258 µg/mL, respectively. In assay [7], this substance yielded a half-maximal inhibitory concentration (IC50) of 6.78 µg/mL.

As to 4858_P08 (PGT-123) (antibody), in assay [8], the IC50, pseudovirus neutralization came out at 7.1 ng/mL; the IC80 (pseudovirus neutralization) amounted to 0.0281 µg/mL; the IC90 (pseudovirus neutralization) was determined as 0.0625 µg/mL; the IC95 (pseudovirus neutralization) was 0.131 µg/mL. In assay [9], this substance yielded an IC50, pseudovirus neutralization of 0.18 µg/mL; an IC80 (pseudovirus neutralization) of 0.539 µg/mL; an IC90 (pseudovirus neutralization) of 1.01 µg/mL; an IC95 (pseudovirus neutralization) of 1.75 µg/mL. The substance also gave a Fold IC50 increase relative to wild-type in assay [10] of 0.3 fold. Moreover, in [11], the IC50, pseudovirus neutralization was found to be 0.846 µg/mL; the IC80 (pseudovirus neutralization) is 3.29 µg/mL; the IC90 (pseudovirus neutralization) stood at 8.56 µg/mL; the IC95 (pseudovirus neutralization) was over 10 µg/mL. Moreover, in [12], the IC50, pseudovirus neutralization worked out at 4.7 ng/mL; the IC80 (pseudovirus neutralization) came to 0.0175 µg/mL; the IC90 (pseudovirus neutralization) is 0.0381 µg/mL; the IC95 (pseudovirus neutralization) amounted to 0.0791 µg/mL.

In [13], 5141_B17 (PGT-126) (antibody) registered a Neutralization IC80 of 0.018 µg/mL, a Neutralization IC90 of 0.0339 µg/mL, a Neutralization IC95 of 0.0608 µg/mL and a neutralization IC50 of 6.1 ng/mL. In [14], this substance returned a Neutralization IC80 of over 10 µg/mL, a Neutralization IC90 of over 10 µg/mL, a Neutralization IC95 of over 10 µg/mL and a neutralization IC50 of over 10 µg/mL. In assay [15], this substance returned a Neutralization IC80 of 0.0137 µg/mL, a Neutralization IC90 of 0.0316 µg/mL, a Neutralization IC95 of 0.0687 µg/mL and a neutralization IC50 of 3.3 ng/mL.

Consider 4838_L06 (PGT-121) (antibody), for which, in [16], the Neutralization IC90 worked out at 0.223 µg/mL and the Neutralization IC95 is 0.417 µg/mL.

As to 5329_C19 (PGT-136) (antibody), in assay [17], the Neutralization IC80 amounted to 0.0623 µg/mL, the Neutralization IC90 was found to be 0.156 µg/mL, the Neutralization IC95 came to 0.379 µg/mL and the neutralization IC50 amounted to 0.0135 µg/mL. In [18], this substance registered a Neutralization IC80 of over 10 µg/mL, a Neutralization IC90 of over 10 µg/mL, a Neutralization IC95 of over 10 µg/mL and a neutralization IC50 of over 10 µg/mL. In [19], this substance had a Neutralization IC80 of over 10 µg/mL, a Neutralization IC90 of over 10 µg/mL, a Neutralization IC95 of over 10 µg/mL and a neutralization IC50 of over 10 µg/mL. In assay [20], this substance returned a Neutralization IC80 of over 10 µg/mL, a Neutralization IC90 of over 10 µg/mL, a Neutralization IC95 of over 10 µg/mL and a neutralization IC50 of over 10 µg/mL.

Substance 5147_N06 (PGT-130) (antibody) gave a Fold IC50 increase relative to wild-type in [21] of 1.6 fold.

As for 5343_B08 (PGT-135) (antibody), in assay [22], the Neutralization IC80 came out at 3.46 µg/mL, the Neutralization IC90 was over 10 µg/mL, the Neutralization IC95 is over 10 µg/mL and the neutralization IC50 was found to be 0.157 µg/mL.

For the substance 5123_A06 (PGT-125) (antibody), in assay [23], the Neutralization by PGT-125, IC50 came to 0.0156 µg/mL; the Neutralization by PGT-125, IC80 came to 0.0462 µg/mL; the Neutralization by PGT-125, IC90 amounted to 0.0873 µg/mL; the Neutralization by PGT-125, IC95 was found to be 0.157 µg/mL. In [24], this substance showed a Neutralization by PGT-125, IC50 of 0.0262 µg/mL; a Neutralization by PGT-125, IC80 of 0.0926 µg/mL; a Neutralization by PGT-125, IC90 of 0.206 µg/mL; a Neutralization by PGT-125, IC95 of 0.487 µg/mL. In [25], this substance came in with a Neutralization by PGT-125, IC50 of 2.8 ng/mL; a Neutralization by PGT-125, IC80 of 0.011 µg/mL; a Neutralization by PGT-125, IC90 of 0.0248 µg/mL; a Neutralization by PGT-125, IC95 of 0.0526 µg/mL.

In assay [26], 4877_D15 (PGT-122) (antibody) came in with a Neutralization IC80 of over 10 µg/mL, a Neutralization IC90 of over 10 µg/mL, a Neutralization IC95 of over 10 µg/mL and a neutralization IC50 of over 10 µg/mL. Further, in assay [27], the Neutralization IC80 was 0.166 µg/mL, the Neutralization IC90 stood at 0.342 µg/mL, the Neutralization IC95 was found to be 0.659 µg/mL and the neutralization IC50 amounted to 0.0471 µg/mL. Moreover, in [28], the Neutralization IC80 is 0.0407 µg/mL, the Neutralization IC90 amounted to 0.113 µg/mL, the Neutralization IC95 is 0.289 µg/mL and the neutralization IC50 is 7.2 ng/mL. In [29], this substance yielded a Neutralization IC80 of over 10 µg/mL, a Neutralization IC90 of over 10 µg/mL, a Neutralization IC95 of over 10 µg/mL and a neutralization IC50 of 2.06 µg/mL.

In [30], 1496_C09 (PG9) (TCN-109) (antibody) displayed a Neutralization IC80 of 0.645 µg/mL, a Neutralization IC90 of 1.65 µg/mL, a Neutralization IC95 of 3.71 µg/mL and a neutralization IC50 of 0.121 µg/mL.

As a reminder, the IC50 is the concentration that gives 50% inhibition.
